The results in this text go back to paper PMC9410886.

This assay has as its target mouse mammary tumor virus (MMTV) integrase (IN) (mouse mammary tumor virus (MMTV)). Kind of assay: cryo-EM structure; octameric MMTV STC intasome: IN assembled on branched DNA, purified on Superdex 200 in 25 mM Tris-HCl pH 7.4, 200 mM NaCl, 2 mM DTT, 25 uM ZnCl2, 10 mM CaCl2; C2 symmetry, 3.5 Å global resolution.

Take “mouse mammary tumor virus (MMTV) integrase (IN) (enzyme)”: the stoichiometry N was determined as 8.

By stoichiometry N is commonly meant a count of units in the complex or per binding partner.
